Measured values reported in the domain aggregation screens of Martell et al. (2025).

Experiment: soluble fraction after stress (log2 fold change); higher = more stays soluble; pooled small domains, quantitative proteomics
Conditions: stress: pH 4
Summary of the method: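 Aggregation propensity here comes from the fold change in the soluble amount of each small protein domain after acid stress, measured in pooled custom libraries by high-throughput quantitative proteomics. The acid stress was pH 4. On the log2 scale, higher values mean more of the domain stayed soluble.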

Sequence	soluble fraction (log2)
HMPDLQDTLYRLVPEDGSAIGNQSLREKFLSTAKDASDADFEAARDGLVEQGKLTKGKGRGGSVRRAEP	0.397
HMPDLSMLDEVLDEYRSQAGSLVTVLQKAQDLYGYLPLTILRHIAEEMNIKPAQVYGVATFYTQFRL	-0.866
HMPDRQKDIQNWQQIAETLLNMLDKYVAALETGKTGLAEAYKAIFAETLRRLDDRLDPEQFLP	-1.3
HMPDTETLTPRQRQILDLVQELGFTTIETLAERFGVSAQTVRREIIRLQAGNFLQRFHGGAGLASGGIRSA	-0.325
HMPDYAFEGVVIKLTHRDYDRWKAGFPDVDLPPYLTARDAWLSEQTPADRKNWFVSTATDLRNFQKREAI	-0.362
HMPEDQISYTDLIKQINDGNVEKIKMTVGSTTIKVNLKEQEEPKTAIVPSTQAFIELVQEKVQDGNEITLI	-0.39
HMPEITPAMIKALLSSLSEELAFASVTKVYAVLHNLFKAALLDDTIDRNPMDKVPRPRKSKDAAL	-0.424
HMPELPEVETSRRGIEPHLVGATILHAVVRNGRLRWPVSEEIYRLSDQPVLSVQRRAKYLLLELQA	0.369
HMPELSPEERAIIETLQKNNDLQVNIIAIKTGMDMGSLSAVLFDLEMKGLVKLLAGGMYHLI	-0.112
HMPEPAPALPAKTRVSIRRETGGIIWHEGAWTISPPIRAYDGRWYVAVTTARKGIEFVPVSSVIRS	-0.0262
HMPEPMKLSDLPPELWQRVSDLFDEVIDLPETDRIPYIRNLWGSEPLVAKELMALLVAAANVD	-1.1
HMPESFSEMQKRTGVGEFSDDALSAKYVDSIDADVMSLDEYIMKVRGISLDDLEAERALRAR	-0.884
HMPETAQLTDIQVSRSQAHTGIFSLHYYLTGTDSRGERVRLEISGDDYTRLSGSSSVTVEYYRHTGRIVRY	-0.552
HMPETYVVFSKDGYANLRRGTTINSEILDVLDNGEYVTKLDEVGEWYRVEYADFDGGYIHKSQLKNI	-1.58
HMPFDRTVQLAGARARQLQALPRYREVLRLLDEGMNPREIGQVLDPPVTRQRASALIQQAKRAQMLGLFED	-0.0649
HMPFNLKSLADRLSHVFPGLVKMRDDIGAIIVMDKIKVTEHGVTEGGGLAADRVRAVYNEFIKEY	0.334
HMPFSLHGVNEGSRNDNAARIAGYLISKNLNLDFVRIFLHNWNRDNKPPLPQQEIDSVVDNVKKTHDRKN	-0.0731
HMPGEATVPSVIGMTKAEAKAKLQASGFELGYSEFVASDKPKGEIVEQDPGAGETAKGGTEVNVKISDGS	-0.187
HMPGLDTTILSDILSLKKELPSRSAAKILIMLILAKRIEEGSLNLRTINRILNQYGYTRESLL	0.327
HMPGLQSVTPAELKIGMYVILPLAWDEHPFLKNHFLIQSEAQINKIRELGTKGIQIDLSKSHP	0.0126
HMPGMLVVYVTGAVRQPGRMVTLAAGSRVSDAIDAAGGLADDADAQALNLSARLNDGDLVHVPSALD	-0.227
HMPHILEITSSKILDELQDEKKMVYFHFEKQSNQYVYRLIFNSKNELMEFKKSLEKNSSILDVRADM	-0.354
HMPHITDAEWEVMRVVWANHHVTSKEVISILEDKMNWKATTIKTLLGRLVEKGALSTEQDGKKFIYTAR	-0.622

Sequence	soluble fraction (log2)
HMPHTDATDKQIIALILETLKDGQKHSVSEMTFPGIPREKTAQLLHQMIEEETVRIQNGVLFLPH	-0.118
HMPIDNTLLSRITSLGVSTTEAEKLISKHGEEALKANLEVVEERLSKPNLPLLDSPAAYLKTALKNG	0.224
HMPIEQVEVPNLTNMTREEAESTLTSLNLKAQVHEEANEADEGKVFKQGTNTGEMVDEGSTIEIWVS	-0.555
HMPIHAGERLTLRLAGEGREAGQAIGYLEDGTLVIVERARHLIGQDVTVEVTRTLQTAGGRLVFAHLVE	-0.896
HMPKDLEKRAAILAAAKHLFPVHGFEGTSMDAIAALANVSKLTVYSHFKDKESLFTEAIREK	0.163
HMPKDMAKRASILTAASKLFVQHGYGGVSMDQIAAEAGVSKLTVYSHYGDKDSLFAAAVQAH	0.163
HMPKELAPYDILARYYLTVNNSKQSIALLEQYLDKAGSAPAALKAKLLLAGILYPSGNKERAEKLVEEVIK	-0.136
HMPKETFLNLDEEKRQAIINVLLKNFSEQHISQVKVSAIVSGIGMSRGAFYKYFEDLEDAYRFTISYFSA	-0.0967
HMPKLTKEEIQFIDNYLKNSGVEYIDTRAEVVDHVASEIESRLSANNTTNFYEEFKVYMVQHKETLLK	-0.96
HMPKLVGEVMQTLDALRREKGLSLLLVEQNARAALGVVDRVYVLERGRVVFEGSAKEAMEDQDVMEFYLG	0.0193
HMPKRSKDEAELEFLEMLRDNQVDSTWSFGKIISQLGSTDPRYWMVDDDPLWKRQIFEKYLSNR	-1.79
HMPLDISDDSKAVLKLLKNDSNELNTVKSASGLSNKKWDKTIKELTKNKIVSVSKTEDGLYIHLI	0.336
HMPLDYQELRNISPQAARQAILQILKANKGNVSQTARMLGITRKTVYKAMAKREAGNLDDGSRAPK	0.265
HMPLLELPDDFYPAWKPKTIYVQGQRIMLDGVAFEAKWWTQGDNPASGQADPGSSPWRTLTQEEIAKLLE	-0.56
HMPLLKIGAQGHDVRVVQEALQRAGYAIEGVTGIFDEATREAVLAFQRDQQLTESGTVDRATWHALRR	-0.52
HMPLLSPRQLDVLSLAAGGLSDAQIAGRLVLSESTVRVHFHHIIEKLGVTDRAGAIAWYEQSRS	-0.378
HMPLNAFDVAGYRLGYGGGYFDRTLAALSPRPLAVGVGFEINRLESIRPEAHDQRLDWIVTENGAFRPA	-0.944
HMPLNAHIVGRGKRDRRGKRGAPYSIVLELGRDENGKRIQKWYSGYPTKAAAEEDKIRMLRELQTGEYVPQ	0.153
HMPLPFSPVMFVGTKSGAQTDLDGNYKIETYYSSDSLKVVVLGYAPLAKKVKQGTTSVVNFELSAAS	0.104
HMPLPLYVQIKESLRGQIFDGTYGEHERLPSENDLMSSFGVSRITVRQALSDLEKEELIFKVPGKGAFVSR	-1.28
HMPLQKNRPKIKPQKVVFLFSVEWMWSPAHNRIDSYFINIKPSRYYLWNSFFDRHSFSDYWDFIGYTEN	0.22
HMPLSDAEKAAAIATQAKERALKLSPEMISYLLRHASRDMRTLSMLVVALDQYTLEQKRPVTLPLLRELLS	-0.0153
HMPMIQHFHRMISAALGISEKQIVQTLGLLNDGATIPFISRYRKEVTGGLDEVQIESIKTHYEKLNEIAK	-0.999

Sequence	soluble fraction (log2)
HMPMPQDEVSYALGLSIGQNFKASGIKAITSEDFIAGLQDALAEREPQMTTERAREVINQLFMRLQQEESE	-0.784
HMPMTDYQLIRSNRRTIALQITRDARVVVRAPLYASEADIRRFVESHRAWIESHLDRQRARTD	0.201
HMPMTRILFLPDDRTILQFDSAEPAEDLVSAVNAGRWLPPEPYRSGFGLGLPENRLRASRQGALVVVMLS	-1.19
HMPNDYRKKLEILAKEKGAEYLHTMLTEVDPKSALQIHTNNIKRTIRALEFYHQTGMKISEHNEAEREK	0.0478
HMPNIHVVFAEEWTDRRLDKVLSEYFDGYSRSFIKKLFDDGLILVNSKAVKPSYKVRAGDMIDISVPDPV	-0.465
HMPNPALESARPAFEAFLSRFSDGEAMRGPAWGLWSLLHRKGNAPTASHAAGRDGMGVLAFLRHWQWG	-0.551
HMPPDLSEAIQKRIEGKTDEALEILRKLYNEYPESTEIITMLGRTLLDAEEYALAAFRLEQALDLGG	-1.22
HMPPDVIENIFKNDANKIIDLYNMAPRGQKETIVEMIKNKRLQGINVDANVLVKLGELTGIDFVN	-1.37
HMPPLVLRGVVMGADGARLAILAQGEAGAALGIGETWKEYTLRSVTDQSATLEHRSGTITLTR	-0.437
HMPPNPELGKKLLKLRKEFKMTQDDVANILGMSRTSFSKYENGIANPPLQVMRKLASIYNVGLEYLI	-0.0729
HMPQEMIEILATPNGWLRVRQGPGTNYPEITKVNSGEEFPLLEEKDSWFKIRIEEGQEGWISSQYAQKEE	-0.0319
HMPQGFEDLTEREREVLTLIAEGRTNQEIADALVISIKTVNRHRENIMAKLNLHSRVELVRYAIAQGLI	-0.723
HMPQNLQDQLFELILSRYPRRADAVEDLANILHLGKDPVYRRLRGDTFLSPLEISTLALHFRISLDALIV	-1.51
HMPQPEIEIAAVVPYSAGALLSRIHDDGELLAPVEYRGEGVFVHARVPADIEAAMRRGGMLSPAET	-0.164
HMPQQVFKREDLQKWGLTGQADSRKRREKLGQLLGIGYGNGKQLIHRLNMFQVDRATFEQAIKQINQEEDH	0.00776
HMPQTNIYPNPAFDKLFVSNLENETNFKIMDLFGRTIINSKTKGEISISELKSGIYIIEINNFRQKFVK	-0.863
HMPQVALAIDEMKRELASPDIVKTLLATTFKGLSEVNMRQAMLDGMIQGHTIADFFKKDVYAIPFGSGYSL	-0.0951
HMPRPFPELTTREHDILALIARGWSNGRIADHLSLSGKTVSNYVSNILGKLQVTARAEAAERAREAGMGQ	-0.401
HMPRRSYLDARKKLLGMLNSPDFNSGDQIPAERELSEVLGISRVTVRKIITELIDEGVLERRGNQGTWLVD	-0.48
HMPRSREVHVEPGMVLEDVTTGFVGAVIRTEKSAGIYVIELEDRRGRRRSFPLGGGFWLDGRPIIALPPLP	0.281
HMPSLAVYPNPVKDILNIATDKPVHSIRIYNVYGSEVLRAADTNRIDVSHLPAGVYMVSADGKVTRIIK	0.0765
HMPSLGGLLALLKRNRKPDAMEALDRLISKEDRPETAEALENIREKVRNMQMREAEGLLLALMEP	-0.281
